Test results published in US20120251557A1 (VERENIGING VOOR CHRISTELIJK HOGER ONDERWIJS …, published 2012).

Tests used:
[1] = target: CD45 on human peripheral blood lymphocytes (PBL) (human) (UniProt P08575); assay: ELISA: MGL-Fc-coated plate captures ligands from PBL lysate, detection with panCD45 antibody; ++ = high binding (OD 450 nm >0.25)
[2] = target: human CD45B isoform in transfected murine 300-19 cells (human) (UniProt P08575); assay: ELISA: isoform pulled down from transfectant lysate with panCD45 antibody, probed with MGL-Fc; ++ = high binding (OD 450 nm >0.25)
[3] = target: human CD45AB isoform in transfected murine 300-19 cells (human) (UniProt P08575); assay: as above
[4] = target: human CD45ABC isoform in transfected murine 300-19 cells (human) (UniProt P08575); assay: as above
human CD45ABC isoform in transfected murine 300-19 cells (human), sequence (P08575 26-1306): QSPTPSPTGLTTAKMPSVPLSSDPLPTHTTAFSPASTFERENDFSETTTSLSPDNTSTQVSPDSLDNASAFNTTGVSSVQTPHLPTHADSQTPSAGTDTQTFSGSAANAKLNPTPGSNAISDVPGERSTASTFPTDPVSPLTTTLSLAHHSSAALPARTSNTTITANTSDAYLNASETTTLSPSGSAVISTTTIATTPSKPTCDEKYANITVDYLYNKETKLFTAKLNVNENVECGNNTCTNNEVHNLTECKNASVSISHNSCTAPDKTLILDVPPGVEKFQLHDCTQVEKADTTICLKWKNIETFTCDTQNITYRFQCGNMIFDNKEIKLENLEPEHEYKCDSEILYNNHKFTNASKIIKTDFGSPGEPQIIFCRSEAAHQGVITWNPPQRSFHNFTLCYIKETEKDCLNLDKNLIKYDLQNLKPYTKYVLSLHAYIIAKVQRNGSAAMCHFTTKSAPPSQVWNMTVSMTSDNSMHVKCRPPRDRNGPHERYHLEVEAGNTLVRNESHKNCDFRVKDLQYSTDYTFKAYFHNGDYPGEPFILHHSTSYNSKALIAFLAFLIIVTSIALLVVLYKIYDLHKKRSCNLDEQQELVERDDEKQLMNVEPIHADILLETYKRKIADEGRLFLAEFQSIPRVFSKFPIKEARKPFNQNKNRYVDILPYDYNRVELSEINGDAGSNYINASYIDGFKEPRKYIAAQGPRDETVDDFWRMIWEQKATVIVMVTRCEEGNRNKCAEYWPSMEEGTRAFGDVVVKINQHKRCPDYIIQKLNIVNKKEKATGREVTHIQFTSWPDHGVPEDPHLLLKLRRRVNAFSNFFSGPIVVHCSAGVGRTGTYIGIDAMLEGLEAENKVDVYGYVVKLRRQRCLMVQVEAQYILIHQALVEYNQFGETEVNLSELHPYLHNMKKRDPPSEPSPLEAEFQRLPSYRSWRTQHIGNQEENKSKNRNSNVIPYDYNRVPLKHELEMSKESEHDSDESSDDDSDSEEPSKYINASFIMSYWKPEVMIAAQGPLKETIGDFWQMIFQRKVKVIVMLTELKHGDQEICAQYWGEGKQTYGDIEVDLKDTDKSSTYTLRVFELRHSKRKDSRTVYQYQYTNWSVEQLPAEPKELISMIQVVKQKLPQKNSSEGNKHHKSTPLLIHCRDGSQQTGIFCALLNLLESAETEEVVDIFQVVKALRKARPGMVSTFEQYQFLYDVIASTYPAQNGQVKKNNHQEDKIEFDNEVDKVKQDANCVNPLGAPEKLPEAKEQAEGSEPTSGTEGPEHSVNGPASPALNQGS

[5] = target: human CD45BC isoform in transfected murine 300-19 cells (human) (UniProt P08575); assay: as above
[6] = target: B-containing CD45 isoforms from PBL (detected with anti-CD45RB); assay: ELISA: MGL-Fc-coated plate captures ligands from PBL lysate, detection with anti-CD45RB; ++ = high binding (OD 450 nm >0.25)
[7] = target: A-containing CD45 isoforms from PBL (detected with anti-CD45RA); assay: ELISA: MGL-Fc-coated plate captures ligands from PBL lysate, detection with anti-CD45RA; + = low binding (OD 450 nm <0.25)
[8] = target: C-containing CD45 isoforms from PBL (detected with anti-CD45RC); assay: ELISA: MGL-Fc-coated plate captures ligands from PBL lysate, detection with anti-CD45RC; ++ = high binding (OD 450 nm >0.25)
[9] = target: CD45 on human peripheral blood lymphocytes (PBL) (human) (UniProt P08575); assay: cell-based or functional assay
[10] = target: T1, secreted tumor-associated MUC1 from the supernatant of ZR75 tumor cells (UniProt P15941 24-1097, limits assumed); assay: ELISA on coated MUC1 from ZR75 supernatant
T1 construct: Coated on ELISA plates, or loaded on beads through MUC1 antibodies; also called secreted MUC1 from tumor cell line ZR75
T1 sequence (P15941 24-1097 limits assumed): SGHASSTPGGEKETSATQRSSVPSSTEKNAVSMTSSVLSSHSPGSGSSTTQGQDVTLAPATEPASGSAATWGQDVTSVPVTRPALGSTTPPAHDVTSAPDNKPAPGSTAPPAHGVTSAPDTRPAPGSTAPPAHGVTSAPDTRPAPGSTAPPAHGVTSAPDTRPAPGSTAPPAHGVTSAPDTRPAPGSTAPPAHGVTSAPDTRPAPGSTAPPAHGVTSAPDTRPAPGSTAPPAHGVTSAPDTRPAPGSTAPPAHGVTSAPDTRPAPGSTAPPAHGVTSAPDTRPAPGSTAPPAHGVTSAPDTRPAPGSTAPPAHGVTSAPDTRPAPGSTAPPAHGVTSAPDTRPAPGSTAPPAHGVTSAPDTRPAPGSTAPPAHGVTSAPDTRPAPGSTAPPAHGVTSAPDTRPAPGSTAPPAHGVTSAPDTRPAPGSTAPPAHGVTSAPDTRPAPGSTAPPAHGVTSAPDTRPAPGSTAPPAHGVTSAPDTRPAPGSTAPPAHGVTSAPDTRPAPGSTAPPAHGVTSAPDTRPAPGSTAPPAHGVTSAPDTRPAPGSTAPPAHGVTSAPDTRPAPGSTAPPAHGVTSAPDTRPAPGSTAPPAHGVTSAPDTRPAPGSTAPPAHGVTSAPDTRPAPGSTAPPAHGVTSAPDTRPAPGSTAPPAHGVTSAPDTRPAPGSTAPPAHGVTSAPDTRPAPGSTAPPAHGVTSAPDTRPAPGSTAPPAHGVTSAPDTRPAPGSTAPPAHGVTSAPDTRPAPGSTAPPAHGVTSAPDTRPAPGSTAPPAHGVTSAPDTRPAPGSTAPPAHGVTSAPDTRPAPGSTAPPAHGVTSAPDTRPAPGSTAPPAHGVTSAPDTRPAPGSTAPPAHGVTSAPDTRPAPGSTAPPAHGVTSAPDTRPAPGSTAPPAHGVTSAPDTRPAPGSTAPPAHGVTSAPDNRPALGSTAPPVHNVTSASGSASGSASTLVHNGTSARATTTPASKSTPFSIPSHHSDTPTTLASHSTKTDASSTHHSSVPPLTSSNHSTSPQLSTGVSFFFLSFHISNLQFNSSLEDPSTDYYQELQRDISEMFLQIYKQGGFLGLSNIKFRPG
From the text: Example 2, FIG. 8. MGL-Fc detects secreted MUC1 from tumor cell line ZR75. FIG. 8A, MUC1 was harvested out of the supernatant of cultured ZR75 tumor cells and coated on ELISA plates. Both MGLFc and DC-SIGNFc were used to look for carbohydrate-binding epitopes expressed on tumor-associated MUC1. […] Furthermore, EGTA, which inhibits lectin binding to carbohydrates, illustrates that the recognition of MGL to MUC1 is carbohydrate mediated. FIG. 8B, in a second experiment, the tumor-associated MUC1 were coated on fluorescent beads coupled with MUC1 antibodies. Fluorescent MUC1-coupled beads were added to MGL-expressing CHO cells and untransfected CHO cells.
This experiment is depicted in FIG. 8 of Example 2. In FIG. 8A, MUC1 was harvested out of the supernatant of cultured ZR75 tumor cells and coated on ELISA plates. Both MGLFc and DC-SIGNFc were used to look for carbohydrate-binding epitopes expressed on tumor-associated MUC1. […] Furthermore, EGTA, which inhibits lectin binding to carbohydrates, illustrates that the recognition of MGL to MUC1 is mediated by the expression of carbohydrates.

CD45 on human peripheral blood lymphocytes (PBL) (human), sequence (P08575 26-1306): as the sequence (P08575 26-1306) above

Molecule: MGL-Fc (extracellular part of human MGL, amino acids 61-289, fused at the C-terminus to human IgG1-Fc) (from UniProt Q8IUN9 61-289; P01857 99-330) (Fc fusion)
- OD 450 nm [1]: > 0.25 od
- OD 450 nm [2]: > 0.25 od
- OD 450 nm [3]: > 0.25 od
- OD 450 nm [4]: > 0.25 od
- OD 450 nm [5]: > 0.25 od
- OD 450 nm [6]: > 0.25 od
- OD 450 nm [7]: < 0.25 od
- OD 450 nm [8]: > 0.25 od

Molecule: Macrophage galactose-type lectin (MGL) on cells (CHO-MGL transfectants, monocyte-derived dendritic cells, dexamethasone-treated APC) (from UniProt Q8IUN9 1-316) (receptor)
- proliferation of allogeneic CD4+ T cells ([methyl-3H]thymidine) in co-culture with dexamethasone-treated APC, with or without blocking anti-MGL antibodies [9]: 3 fold

B1: DC-SIGN-Fc (Fc fusion, UniProt Q9NNX6 64-404, looked up)
chain: PSSISQEQSRQDAIYQNLTQLKAAVGELSEKSKLQEIYQELTQLKAAVGELPEKSKLQEIYQELTRLKAAVGELPEKSKLQEIYQELTWLKAAVGELPEKSKMQEIYQELTRLKAAVGELPEKSKQQEIYQELTRLKAAVGELPEKSKQQEIYQELTRLKAAVGELPEKSKQQEIYQELTQLKAAVERLCHPCPWEWTFFQGNCYFMSNSQRNWHDSITACKEVGAQLVVIKSAEEQNFLQLQSSRSNRFTWMGLSDLNQEGTWQWVDGSPLLPSFKQYWNRGEPNNVGEEDCAEFSGNGWNDDKCNLAKFWICKKSAASCSRDEEQFLSPAPATPNPPPA
notes: not shown: Fc part not described
- binding result [10]: no binding
